The FLAb antibody collection (doi:10.1101/2023.12.08.570889)

These binders were tested against TSLP, Q969D9 (assay: Kd (SPR)).

Row | Kd | Binder
1 | 183 nM | unnamed (protein) chain 1: QMQLVESGGGVVQPGRSLRLSCAASGFTFRTYGMHWVRQAPGKGLEWVAVIWYDGSNKHYADSVKGRFTITRDNSKNTLNLQMNSLRAEDTAVYYCARGPMALLYYRGFDYWGQGTMVTVSS chain 2: SYVLTQPPSVSVAPGQTARITCGGNNLGSKSVHWYQQKPGQAPVLVVYDDSDRPSWIPERFSGSNSGNTATLTISRGEAGDEADYYCQVWDSSSDHVVFGGGTKLTVL
2 | 238 nM | unnamed (protein) chain 1: QMQLVESGGGVVQPGRSLRLSCAASGFTFRTYGMHWVRQAPGKGLEWVAVIWYDGSNKHYADSVKGRFTITRDNSKNTLNLQMNSLRAEDTAVYYCARAPRYDYYLEAFDVWGQGTMVTVSS chain 2: SYVLTQPPSVSVAPGQTARITCGGNNLGSKSVHWYQQKPGQAPVLVVYDDSDRPSWIPERFSGSNSGNTATLTISRGEAGDEADYYCQVWDSSSDHVVFGGGTKLTVL
3 | 228 nM | unnamed (protein) chain 1: QMQLVESGGGVVQPGRSLRLSCAASGFTFRTYGMHWVRQAPGKGLEWVAVIWYDGSNKHYADSVKGRFTITRDNSKNTLNLQMNSLRAEDTAVYYCARSPRYDDYLEAFDVWGQGTMVTVSS chain 2: SYVLTQPPSVSVAPGQTARITCGGNNLGSKSVHWYQQKPGQAPVLVVYDDSDRPSWIPERFSGSNSGNTATLTISRGEAGDEADYYCQVWDSSSDHVVFGGGTKLTVL
4 | 241 nM | unnamed (protein) chain 1: QMQLVESGGGVVQPGRSLRLSCAASGFTFRTYGMHWVRQAPGKGLEWVAVIWYDGSNKHYADSVKGRFTITRDNSKNTLNLQMNSLRAEDTAVYYCARAPRYDDRYEAFDVWGQGTMVTVSS chain 2: SYVLTQPPSVSVAPGQTARITCGGNNLGSKSVHWYQQKPGQAPVLVVYDDSDRPSWIPERFSGSNSGNTATLTISRGEAGDEADYYCQVWDSSSDHVVFGGGTKLTVL
5 | 86.2 nM | unnamed (protein) chain 1: QMQLVESGGGVVQPGRSLRLSCAASGFTFRTYGMHWVRQAPGKGLEWVAVIWYDGSNKHYADSVKGRFTITRDNSKNTLNLQMNSLRAEDTAVYYCARAPRYDDTYEAFDVWGQGTMVTVSS chain 2: SYVLTQPPSVSVAPGQTARITCGGNNLGSKSVHWYQQKPGQAPVLVVYDDSDRPSWIPERFSGSNSGNTATLTISRGEAGDEADYYCQVWDSSSDHVVFGGGTKLTVL
6 | 83 nM | unnamed (protein) chain 1: QMQLVESGGGVVQPGRSLRLSCAASGFTFRTYGMHWVRQAPGKGLEWVAVIWYDGSNKHYADSVKGRFTITRDNSKNTLNLQMNSLRAEDTAVYYCARAPRYDWLYEAFDVWGQGTMVTVSS chain 2: SYVLTQPPSVSVAPGQTARITCGGNNLGSKSVHWYQQKPGQAPVLVVYDDSDRPSWIPERFSGSNSGNTATLTISRGEAGDEADYYCQVWDSSSDHVVFGGGTKLTVL
7 | 126 nM | unnamed (protein) chain 1: QMQLVESGGGVVQPGRSLRLSCAASGFTFRTYGMHWVRQAPGKGLEWVAVIWYDGSNKHYADSVKGRFTITRDNSKNTLNLQMNSLRAEDTAVYYCARDRFDVASGSSFDFWGQGTMVTVSS chain 2: SYVLTQPPSVSVAPGQTARITCGGNNLGSKSVHWYQQKPGQAPVLVVYDDSDRPSWIPERFSGSNSGNTATLTISRGEAGDEADYYCQVWDSSSDHVVFGGGTKLTVL
8 | 290 nM | unnamed (protein) chain 1: QMQLVESGGGVVQPGRSLRLSCAASGFTFRTYGMHWVRQAPGKGLEWVAVIWYDGSNKHYADSVKGRFTITRDNSKNTLNLQMNSLRAEDTAVYYCARSPRYDYYWEAFDVWGQGTMVTVSS chain 2: SYVLTQPPSVSVAPGQTARITCGGNNLGSKSVHWYQQKPGQAPVLVVYDDSDRPSWIPERFSGSNSGNTATLTISRGEAGDEADYYCQVWDSSSDHVVFGGGTKLTVL
9 | 122 nM | unnamed (protein) chain 1: QMQLVESGGGVVQPGRSLRLSCAASGFTFRTYGMHWVRQAPGKGLEWVAVIWYDGSNKHYADSVKGRFTITRDNSKNTLNLQMNSLRAEDTAVYYCARAPRYDDLYEAFDVWGQGTMVTVSS chain 2: SYVLTQPPSVSVAPGQTARITCGGNNLGSKSVHWYQQKPGQAPVLVVYDDSDRPSWIPERFSGSNSGNTATLTISRGEAGDEADYYCQVWDSSSDHVVFGGGTKLTVL
10 | 103 nM | unnamed (protein) chain 1: QMQLVESGGGVVQPGRSLRLSCAASGFTFRTYGMHWVRQAPGKGLEWVAVIWYDGSNKHYADSVKGRFTITRDNSKNTLNLQMNSLRAEDTAVYYCARAPRYDEAYEAFDVWGQGTMVTVSS chain 2: SYVLTQPPSVSVAPGQTARITCGGNNLGSKSVHWYQQKPGQAPVLVVYDDSDRPSWIPERFSGSNSGNTATLTISRGEAGDEADYYCQVWDSSSDHVVFGGGTKLTVL
11 | 83.9 nM | unnamed (protein) chain 1: QMQLVESGGGVVQPGRSLRLSCAASGFTFRTYGMHWVRQAPGKGLEWVAVIWYDGSNKHYADSVKGRFTITRDNSKNTLNLQMNSLRAEDTAVYYCARAPRYDTYYEAFDVWGQGTMVTVSS chain 2: SYVLTQPPSVSVAPGQTARITCGGNNLGSKSVHWYQQKPGQAPVLVVYDDSDRPSWIPERFSGSNSGNTATLTISRGEAGDEADYYCQVWDSSSDHVVFGGGTKLTVL
12 | 81.9 nM | unnamed (protein) chain 1: QMQLVESGGGVVQPGRSLRLSCAASGFTFRTYGMHWVRQAPGKGLEWVAVIWYDGSNKHYADSVKGRFTITRDNSKNTLNLQMNSLRAEDTAVYYCARSPRYYWYYEAFDVWGQGTMVTVSS chain 2: SYVLTQPPSVSVAPGQTARITCGGNNLGSKSVHWYQQKPGQAPVLVVYDDSDRPSWIPERFSGSNSGNTATLTISRGEAGDEADYYCQVWDSSSDHVVFGGGTKLTVL
13 | 102 nM | unnamed (protein) chain 1: QMQLVESGGGVVQPGRSLRLSCAASGFTFRTYGMHWVRQAPGKGLEWVAVIWYDGSNKHYADSVKGRFTITRDNSKNTLNLQMNSLRAEDTAVYYCARAPRYDWEYEAFDVWGQGTMVTVSS chain 2: SYVLTQPPSVSVAPGQTARITCGGNNLGSKSVHWYQQKPGQAPVLVVYDDSDRPSWIPERFSGSNSGNTATLTISRGEAGDEADYYCQVWDSSSDHVVFGGGTKLTVL
14 | 240 nM | unnamed (protein) chain 1: QMQLVESGGGVVQPGRSLRLSCAASGFTFRTYGMHWVRQAPGKGLEWVAVIWYDGSNKHYADSVKGRFTITRDNSKNTLNLQMNSLRAEDTAVYYCARSPRYDWYWEAFDVWGQGTMVTVSS chain 2: SYVLTQPPSVSVAPGQTARITCGGNNLGSKSVHWYQQKPGQAPVLVVYDDSDRPSWIPERFSGSNSGNTATLTISRGEAGDEADYYCQVWDSSSDHVVFGGGTKLTVL
15 | 103 nM | unnamed (protein) chain 1: QMQLVESGGGVVQPGRSLRLSCAASGFTFRTYGMHWVRQAPGKGLEWVAVIWYDGSNKHYADSVKGRFTITRDNSKNTLNLQMNSLRAEDTAVYYCNAAIRTTVRTSAQEYWGQGTMVTVSS chain 2: SYVLTQPPSVSVAPGQTARITCGGNNLGSKSVHWYQQKPGQAPVLVVYDDSDRPSWIPERFSGSNSGNTATLTISRGEAGDEADYYCQVWDSSSDHVVFGGGTKLTVL
16 | 193 nM | unnamed (protein) chain 1: QMQLVESGGGVVQPGRSLRLSCAASGFTFRTYGMHWVRQAPGKGLEWVAVIWYDGSNKHYADSVKGRFTITRDNSKNTLNLQMNSLRAEDTAVYYCARAPRYDDRWEAFDVWGQGTMVTVSS chain 2: SYVLTQPPSVSVAPGQTARITCGGNNLGSKSVHWYQQKPGQAPVLVVYDDSDRPSWIPERFSGSNSGNTATLTISRGEAGDEADYYCQVWDSSSDHVVFGGGTKLTVL
17 | 72.3 nM | unnamed (protein) chain 1: QMQLVESGGGVVQPGRSLRLSCAASGFTFRTYGMHWVRQAPGKGLEWVAVIWYDGSNKHYADSVKGRFTITRDNSKNTLNLQMNSLRAEDTAVYYCARSPRYYDYWEAFDVWGQGTMVTVSS chain 2: SYVLTQPPSVSVAPGQTARITCGGNNLGSKSVHWYQQKPGQAPVLVVYDDSDRPSWIPERFSGSNSGNTATLTISRGEAGDEADYYCQVWDSSSDHVVFGGGTKLTVL
18 | 109 nM | unnamed (protein) chain 1: QMQLVESGGGVVQPGRSLRLSCAASGFTFRTYGMHWVRQAPGKGLEWVAVIWYDGSNKHYADSVKGRFTITRDNSKNTLNLQMNSLRAEDTAVYYCARAPRYDYYVEAFDVWGQGTMVTVSS chain 2: SYVLTQPPSVSVAPGQTARITCGGNNLGSKSVHWYQQKPGQAPVLVVYDDSDRPSWIPERFSGSNSGNTATLTISRGEAGDEADYYCQVWDSSSDHVVFGGGTKLTVL
19 | 110 nM | unnamed (protein) chain 1: QMQLVESGGGVVQPGRSLRLSCAASGFTFRTYGMHWVRQAPGKGLEWVAVIWYDGSNKHYADSVKGRFTITRDNSKNTLNLQMNSLRAEDTAVYYCTRDGGLLFAYYAMDYWGQGTMVTVSS chain 2: SYVLTQPPSVSVAPGQTARITCGGNNLGSKSVHWYQQKPGQAPVLVVYDDSDRPSWIPERFSGSNSGNTATLTISRGEAGDEADYYCQVWDSSSDHVVFGGGTKLTVL
